Assay results as given in patent US20230265183A1 (MABWELL SHANGHAI BIOSCIENCE, published 2023).
Like-named read-outs stand apart in the source and are kept apart here.

T1: His-tagged human NECTIN4 (human, UniProt Q96NY8 32-349)
T1 construct: Antigen of the BIAcore assay; also called antigen; recombinant NECTIN4 protein; not shown: His tag
T1 sequence: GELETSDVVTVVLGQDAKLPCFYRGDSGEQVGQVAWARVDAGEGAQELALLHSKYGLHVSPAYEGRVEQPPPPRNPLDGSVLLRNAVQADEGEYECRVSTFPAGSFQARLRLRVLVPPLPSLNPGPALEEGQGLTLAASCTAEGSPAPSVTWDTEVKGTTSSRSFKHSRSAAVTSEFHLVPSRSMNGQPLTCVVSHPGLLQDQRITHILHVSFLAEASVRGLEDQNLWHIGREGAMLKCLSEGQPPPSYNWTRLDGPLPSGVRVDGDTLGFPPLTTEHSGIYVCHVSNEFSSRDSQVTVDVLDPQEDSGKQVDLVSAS

T2: human Nectin-4 (human, UniProt Q96NY8 32-510)
T2 construct: whole, on cells; Cell-surface target of the FACS, endocytosis and proliferation assays (CHO-huNectin4 S8 cells, BT474 cells); the assay field says which cells; also called huNectin4; PVRL4
T2 sequence (looked up): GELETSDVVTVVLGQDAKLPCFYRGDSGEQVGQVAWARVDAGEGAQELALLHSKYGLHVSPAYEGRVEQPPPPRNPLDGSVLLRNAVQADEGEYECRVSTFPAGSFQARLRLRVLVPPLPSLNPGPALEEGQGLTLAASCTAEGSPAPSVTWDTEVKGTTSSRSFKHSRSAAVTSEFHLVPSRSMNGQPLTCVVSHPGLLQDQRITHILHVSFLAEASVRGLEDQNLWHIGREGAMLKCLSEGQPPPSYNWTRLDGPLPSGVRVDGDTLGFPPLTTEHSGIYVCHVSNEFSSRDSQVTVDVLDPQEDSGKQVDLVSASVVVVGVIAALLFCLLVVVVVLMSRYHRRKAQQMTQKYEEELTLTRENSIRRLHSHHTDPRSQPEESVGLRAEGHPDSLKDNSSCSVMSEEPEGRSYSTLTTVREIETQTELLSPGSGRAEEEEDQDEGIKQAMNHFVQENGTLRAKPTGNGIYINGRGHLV

T3: murine Nectin4 (NP_082169) (murine, UniProt Q8R007 31-508)
T3 construct: whole, on cells; also called muNectin4
T3 sequence (looked up): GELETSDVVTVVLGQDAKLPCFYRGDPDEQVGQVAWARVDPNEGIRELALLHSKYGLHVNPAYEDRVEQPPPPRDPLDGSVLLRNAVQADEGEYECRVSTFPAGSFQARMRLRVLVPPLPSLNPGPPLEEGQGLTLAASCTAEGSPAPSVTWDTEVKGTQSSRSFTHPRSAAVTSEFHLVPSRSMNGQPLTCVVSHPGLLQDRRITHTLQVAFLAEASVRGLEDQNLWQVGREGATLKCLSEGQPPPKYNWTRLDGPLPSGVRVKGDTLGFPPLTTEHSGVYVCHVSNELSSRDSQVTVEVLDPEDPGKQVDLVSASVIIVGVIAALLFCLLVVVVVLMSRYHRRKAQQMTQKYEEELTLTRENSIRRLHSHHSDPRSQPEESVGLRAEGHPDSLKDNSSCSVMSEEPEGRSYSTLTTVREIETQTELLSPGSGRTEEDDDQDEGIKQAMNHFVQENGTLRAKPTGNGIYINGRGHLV


Experiments:
[1] = target: T1, His-tagged human NECTIN4; experiment: ELISA, antibody without cyno serum, plate coated with 0.2 µg/ml antigen, HRP goat anti-human IgG, OD450. The sheet does not say which of the two plates of Example 13 is drawn
[2] = target: T2, human Nectin-4; experiment: FACS on BT474 cells
Method: (§1) The solutions of different concentrations were added to 384-well plates, 10 µl per well.
(§2) BT474 cells (breast cancer cells) expressing Nectin-4 on the cell surface were collected by centrifugation at 100 g at room temperature for 5 minutes, and then the cells were washed with PBS containing 0.5% BSA once and were centrifuged at 100 g at room temperature for 5 minutes. […] After incubation at 4° C. for 1 hour, fluorescently labeled goat anti-human IgG secondary antibody was added. After continued incubation at 4° C. for 1 hour, mean fluorescence readings of the cell populations were analyzed by a flow cytometer.

[3] = target: T2, human Nectin-4; experiment: FACS on BT474 cells; remark: listed apart in the source
Method: as §1, §2

[4] = target: T1, His-tagged human NECTIN4; experiment: SPR (BIAcore S200), antigen on CAP chip, antibody as analyte, 1:1 fit
Method: Interactions between the antibodies and the antigen were measured using a BIAcore instrument S200 from GE. Referring to the instructions provided in Biotin Capture Kit from GE Healthcare, the analytical channel and the control sample channel on CAP sensor chip were first coupled with antigen i.e. His-tagged human NECTIN4, then samples containing antibodies (diluted 3-fold from an initial concentration of 20 nM respectively and solutions of each antibody of 8 concentrations were obtained totally, and the concentration 0.741 nM was set to be repeated) were allowed to flow through both the analytical channel and the sample channel, and the photoreactions upon antibody-antigen binding were measured. Association constant Kon and dissociation constant Koff and affinity constant KD of each antibody were finally obtained by instrument software fitting (1:1 binding mode) analysis.

[5] = target: T3, murine Nectin4 (NP_082169); experiment: FACS on HEK-muNectin4 cells
[6] = target: T2, human Nectin-4; experiment: FACS on BT474 cells; remark: listed apart in the source
Method: as §1, §2
The experiment results of the binding of engineered humanized molecules of the present disclosure to BT474 cells by FACS assay are shown in panels 3B and 3C in FIG. 3 and Tables 6 and 7.

[7] = target: T2, human Nectin-4; experiment: cell-based or functional assay
[8] = target: T1, His-tagged human NECTIN4; experiment: ELISA, antibody without cyno serum, plate coated with 0.2 µg/ml antigen, HRP goat anti-human IgG, OD450. The sheet does not say which of the two plates of Example 13 is drawn; remark: listed apart in the source

| EC50 (read off the curve) [1] | EC50 [2] | EC50 [3] | Kd [4] | EC50 [5] | EC50 [6] | EC50 (ng/ml), inhibition of proliferation of BT474 cells [7] | EC50 (read off the curve) [8] | Binder | Percentage of cell killing at the highest concentration [7] |
| --- | --- | --- | --- | --- | --- | --- | --- | --- | --- |
| ~0.1 µg/mL | 98.8 µg/mL | 29.6 µg/mL | 4.94 nM | 2.43 µg/mL | 57.2 µg/mL | 3.37 ng/mL | – | Enfortumab (antibody, human IgG1, kappa, V domains shown, also called control antibody Enfortumab) VH: EVQLVESGGGLVQPGGSLRLSCAASGFTFSSYNMNWVRQAPGKGLEWVSYISSSSSTIYYADSVKGRFTISRDNAKNSLSLQMNSLRDEDTAVYYCARAYYYGMDVWGQGTTVTVSS VL: DIQMTQSPSSVSASVGDRVTITCRASQGISGWLAWYQQKPGKAPKFLIYAASTLQSGVPSRFSGSGSGTDFTLTISSLQPEDFATYYCQQANSFPPTFGGGTKVEIKR | 43.3% |
| – | – | – | 1.14 nM | 8.74 µg/mL | – | – | ~0.1 µg/mL | 42D20 hz10 (antibody, V domains shown, Humanized) VH: QVQLQESGPGLVKPSETLSLTCTVSGFSLIDYGVSWIRQPPGKGLEWIGVIWGDGKIYYNSVLKSRVTISKDNSKSQVSLKLSSVTAADTAVYYCAKQGGLLFYAMDYWGQGTLVTVSS VL: DIVMTQSPDSLAVSLGERATINCKSSQSLLNSYSQKNYLAWYQQKPGQPPKLLIYFASTRESGVPDRFSGSGSGTDFTLTISSLQAEDVAVYYCQQHYNTPFTFGAGTKLELKR | – |
